B1: HDV Ribozyme (parent)
chain: GGCCGGCAUGGUCCCAGCCUCCUCGCUGGCGCCGGCUGGGCAACAUUCCGAGGGGACCGUCCCCUCGGUAAUGGCGAAUGGGACCCA

Variants of: B1
Experiment: self-cleavage, relative activity (ratio to wild type); higher = more cleavage; co-transcriptional

Variant | self-cleavage
GGCCGGCAUGGUUCCAGCCUCCUCGCUGGCGCCGGCUGGGCACCAUUCCGAGGGGACCGUCCCCUCGGUAAUGGCGAAUGGGACCCA [C13U A43C] | 0.0791
GGCCGGCAUGGUCCCACCCUCCUCGCUGGCGCCGGCUGGGCAACAUUCCGAGGGGACCGUCCCGUCGGUAAUGGCGAAUGGGACCCA [G17C C64G] | 0.298
GGCCGGCAUGGUCCCAGCCUCCUCGCUGGCACCGGCUGGGCAACAUUCCGAGGGGACCGUCCCCUCUGUAAUGGCGAAUGGGACCCA [G31A G67U] | 0.439
GGCCGGCAUGUUCCCAGCCUCCUCGCUGGCGCCGGCUGGGCAACAUUUCGAGGGGACCGUCCCCUCGGUAAUGGCGAAUGGGACCCA [G11U C48U] | 0.369
GGCCGGCAUGGUCCCAGCCGCCUCGCUGGCGCCGGCUGGGCAACAUUCCAAGGGGACCGUCCCCUCGGUAAUGGCGAAUGGGACCCA [U20G G50A] | 0.151
GGCCGGCAUGGUCCCAGCCUCCUCGUUGGCGCCGGCUGGGCAACAUUCCGAGGGGACCAUCCCCUCGGUAAUGGCGAAUGGGACCCA [C26U G59A] | 1.08
GGCCGGCAUGGUCGCCGCCUCCUCGCUGGCGCCGGCUGGGCAACAUUCCGAGGGGACCGUCCCCUCGGUAAUGGCGAAUGGGACCCA [C14G A16C] | 0.0875
GGCCGGCAUGGUCCCAGCCUCCUUGCUGGCGCCGGCUGGGCAACAUUCCGAGGGGACCGUCCCCUCGGUAAUGGCGAAUGGGACCCA [C24U] | 0.73
GGCCGGCAUGGUCCCAGCCUCCUCGCUGGCGCCGGCUGGGCAACAUUCCGAGGGGACCGUCCCCUCGGUAGUGGCGAAUGGGACCCC [A71G A87C] | 1.03
GGCCGGCAUGAUCGCAGCCUCCUCGCUGGCGCCGGCUGGGCAACAUUCCGAGGGGACCGUCCCCUCGGUAAUGGCGAAUGGGACCCA [G11A C14G] | 0.0346
GGCCGGCAUGGUCCCAGCCUCCUCGCCGGCGCCGGCUGGGCAACAUUCCGAGGGGACCGUACCCUCGGUAAUGGCGAAUGGGACCCA [U27C C61A] | 0.898
GGCCGUCAUGGUCCCAGCCUCCUCGCUGGCGCCGGCUGGGCAACAUUCCGAGGGGACCGUCCCCUCGGUAAUGGGGAAUGGGACCCA [G6U C75G] | 0.145
CGCCGGCAUGGUCCCAGCCUCCUCGCUGGCGCCGGCUGGGCAACAUUCCGAGGGGACCGUCCCCUCGGUAAUGGCGAAGGGGACCCA [G1C U79G] | 0.0723
GGCCGGCAUGGUCCCAGCCUCCUCGCUGGUGCCGGCUGGGCAACAUUCCGAGGGGACCGUCCCCUCGGUAAUGGCGUAUGGGACCCA [C30U A77U] | 0.215
UGCCGGCAUGGUCCCAGCCUCCUCGCUGGCGUCGGCUGGGCAACAUUCCGAGGGGACCGUCCCCUCGGUAAUGGCGAAUGGGACCCA [G1U C32U] | 0.532
GGCCGGCAUGGUCCCAGCCUCCUCGCUGGCGCCGGCUGGGCAACAUUCCGAGGGACCCGUCCCCUCGGUAAUGGCGAAUGGGACCCA [G55A A56C] | 0.895

Variant | self-cleavage
GGCCGGCAUGGUCCCAGCCUCCUUGCUAGCGCCGGCUGGGCAACAUUCCGAGGGGACCGUCCCCUCGGUAAUGGCGAAUGGGACCCA [C24U G28A] | 0.172
GGCCGGCAUGGUCCCAGCCUCCUCGCUGGCGCCGGCUGGGCAACAUUCCGAGGGGCCCGUCCCCUCGGUAAUGGCGAAUUGGACCCA [A56C G80U] | 0.253
GGCCGGCAAGGUCACAGCCUCCUCGCUGGCGCCGGCUGGGCAACAUUCCGAGGGGACCGUCCCCUCGGUAAUGGCGAAUGGGACCCA [U9A C14A] | 0.65
GGCCGGCAUGCUCCCAGCCUCCCCGCUGGCGCCGGCUGGGCAACAUUCCGAGGGGACCGUCCCCUCGGUAAUGGCGAAUGGGACCCA [G11C U23C] | 0.277
GGCCGGCAUGGUCCCAGCCUCCUCGCUGGCGCCGGCUGGGCAACAUUCCGAGGGGAACGUCCCCUCGGUAAUGGCGAAUGGGACCCC [C57A A87C] | 1.05
GGCCGGCAUGGUCCCAGCGUCCCCGCUGGCGCCGGCUGGGCAACAUUCCGAGGGGACCGUCCCCUCGGUAAUGGCGAAUGGGACCCA [C19G U23C] | 0
GGCCGGCAUGGUCCCAGCCUGCUCGCUGGCGUCGGCUGGGCAACAUUCCGAGGGGACCGUCCCCUCGGUAAUGGCGAAUGGGACCCA [C21G C32U] | 0.128
GGCCGGCAUGGUCCCAGCCUCCUCGCUGGCGCCGGCUGGGCAACAUUCCGUGGGGACCGUCCCCUCGGUAAUGGCGAAUGGGACUCA [A51U C85U] | 0.916
CGCCGGCAUGGUCCCAGCCUCCUCGCUGGCGCCGGCUGGGCAACAUUCCGACGGGACCGUCCCCUCGGUAAUGGCGAAUGGGACCCA [G1C G52C] | 0.256
GGCCGGCAUGGUCCCAGCCUCCUCGCUGGCGCCGGCUGGGCAACAUUCCGAGGGGACCGUCCCCUCGGUAAUGGCGAAUGAGACCCG [G81A A87G] | 0.258
GGCCGUCAUGGUCCCAGCCUCCUCGCUGGCGCCGGCUGGGCAACCUUCCGAGGGGACCGUCCCCUCGGUAAUGGCGAAUGGGACCCA [G6U A45C] | 0.0462
GGCCGGCAUGGUCCCAGCCUCCUCGCUGGCGCCGGCUGGGCAACAUUCCGAGGGGUCCAUCCCCUCGGUAAUGGCGAAUGGGACCCA [A56U G59A] | 0.926
GGCCGGCAUGGUCCCAGCCUCCUCGCUGGCGCCGGCUGGGCGACAUUCCGAGGGGACCGUCCCCUCGGAAAUGGCGAAUGGGACCCA [A42G U69A] | 0.554
GGCCGGCAUGGUCCCAGCCUCCUCGCUGGCGCCGGCUGGGCAACAUUCCGAGGGGUCCGUCCCCUCGGUAAUGGCUAAUGGGACCCA [A56U G76U] | 0.95
GCCCGGAAUGGUCCCAGCCUCCUCGCUGGCGCCGGCUGGGCAACAUUCCGAGGGGACCGUCCCCUCGGUAAUGGCGAAUGGGACCCA [G2C C7A] | 0.0268
GGCCGGCAUGGUCCCAGCCUCCUCGCGGGCGCCGGCUGGGCAACAUUCCGAGGGGACCGUCCCCUCGGUUAUGGCGAAUGGGACCCA [U27G A70U] | 0.519

From the RNAGym collection of RNA variant scans (doi:10.7554/elife.80360)
